T1: cynomolgus monkey FcγRIIIaS extracellular domain with C-terminal His-tag (cynomolgus monkey, UniProt Q8SPW2 21-206 at identity 1.00))
T1 construct: also called cyno FcgRIIIaS; cynoFcγRIIIaS
T1 chain: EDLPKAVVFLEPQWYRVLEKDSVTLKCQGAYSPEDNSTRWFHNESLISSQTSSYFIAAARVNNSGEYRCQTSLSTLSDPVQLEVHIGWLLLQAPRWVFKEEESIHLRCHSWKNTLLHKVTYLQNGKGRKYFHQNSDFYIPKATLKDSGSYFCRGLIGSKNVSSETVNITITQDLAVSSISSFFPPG

T2: human FcγRIIb extracellular domain with C-terminal His-tag (human, UniProt P31994 43-217)
T2 construct: also called human FcgRIIb
T2 sequence: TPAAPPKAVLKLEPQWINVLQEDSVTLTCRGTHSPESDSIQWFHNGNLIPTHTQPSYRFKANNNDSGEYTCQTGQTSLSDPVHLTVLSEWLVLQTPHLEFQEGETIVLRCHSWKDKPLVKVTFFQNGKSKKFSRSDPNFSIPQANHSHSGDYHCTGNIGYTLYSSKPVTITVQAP

T3: cynomolgus monkey FcγRIIa2 extracellular domain with C-terminal His-tag (cynomolgus monkey)
T3 construct: also called cyno FcgRIIa2; cynoFcγRIIa2; not shown: His-tag added to C-terminus
T3 chain: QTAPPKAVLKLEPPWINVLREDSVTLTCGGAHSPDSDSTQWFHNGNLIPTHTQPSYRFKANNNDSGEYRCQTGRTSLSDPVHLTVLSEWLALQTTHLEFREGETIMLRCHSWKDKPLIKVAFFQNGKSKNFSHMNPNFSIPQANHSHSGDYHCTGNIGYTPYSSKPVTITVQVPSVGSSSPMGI

T4: human FcγRIIb extracellular domain with C-terminal His-tag (human, UniProt P31994 43-217)
T4 construct: also called human FcgRIIb; not shown: His-tag added to C-terminus
T4 sequence: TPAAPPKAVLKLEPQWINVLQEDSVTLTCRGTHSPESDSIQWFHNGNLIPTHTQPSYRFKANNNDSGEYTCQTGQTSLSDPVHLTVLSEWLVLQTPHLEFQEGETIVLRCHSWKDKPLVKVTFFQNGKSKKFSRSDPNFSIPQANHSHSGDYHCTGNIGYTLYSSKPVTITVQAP

T5: human FcγRIIaH extracellular domain with C-terminal His-tag (human, UniProt P12318 34-217)
T5 construct: also called human FcgRIIaH; FcγRIIa (type H); not shown: His-tag added to C-terminus
T5 sequence: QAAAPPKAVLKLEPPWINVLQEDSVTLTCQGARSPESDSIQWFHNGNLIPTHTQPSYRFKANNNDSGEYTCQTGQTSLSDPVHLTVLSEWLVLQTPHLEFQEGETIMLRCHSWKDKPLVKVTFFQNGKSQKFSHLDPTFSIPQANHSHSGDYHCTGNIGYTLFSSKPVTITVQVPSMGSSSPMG

T6: cynomolgus monkey FcγRIIa3 extracellular domain with C-terminal His-tag (cynomolgus monkey)
T6 construct: also called cyno FcgRIIa3; cynoFcγRIIa3; not shown: His-tag added to C-terminus
T6 chain: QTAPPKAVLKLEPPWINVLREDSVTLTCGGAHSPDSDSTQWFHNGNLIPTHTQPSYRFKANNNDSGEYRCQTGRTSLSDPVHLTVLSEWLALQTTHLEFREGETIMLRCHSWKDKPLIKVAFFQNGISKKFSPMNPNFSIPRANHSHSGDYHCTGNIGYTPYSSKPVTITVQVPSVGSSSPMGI


What was measured:
[1] = molecular target: T1, cynomolgus monkey FcγRIIIaS …; test: SPR, KD(parent SG1)/KD(variant)
[2] = molecular target: T2, human FcγRIIb extracellular domain with …; test: SPR, KD(parent SG1)/KD(variant)
[3] = molecular target: T3, cynomolgus monkey FcγRIIa2 …; test: SPR Biacore, antibody captured, FcgR analyte
[4] = molecular target: T4, human FcγRIIb extracellular domain with …; test: SPR Biacore, antibody captured, FcgR analyte
[5] = molecular target: T7, cynomolgus monkey FcγRIIIaS extracellular domain with C-terminal His-tag (cynomolgus monkey, UniProt A3RFZ7 21-206 (rhesus entry)); test: SPR Biacore, antibody captured, FcgR analyte
T7 construct: also called cyno FcgRIIIaS; cynoFcγRIIIaS; not shown: His-tag added to C-terminus

[6] = molecular target: T5, human FcγRIIaH extracellular domain …; test: SPR Biacore, antibody captured, FcgR analyte
[7] = molecular target: T8, human FcγRIIIaV extracellular domain with C-terminal His-tag (human, UniProt P08637 17-208); test: SPR Biacore, antibody captured, FcgR analyte
T8 construct: also called human FcgRIIIaV; not shown: His-tag added to C-terminus

[8] = molecular target: T6, cynomolgus monkey FcγRIIa3 …; test: SPR Biacore, antibody captured, FcgR analyte

T8 sequence (P08637 17-208 F176V): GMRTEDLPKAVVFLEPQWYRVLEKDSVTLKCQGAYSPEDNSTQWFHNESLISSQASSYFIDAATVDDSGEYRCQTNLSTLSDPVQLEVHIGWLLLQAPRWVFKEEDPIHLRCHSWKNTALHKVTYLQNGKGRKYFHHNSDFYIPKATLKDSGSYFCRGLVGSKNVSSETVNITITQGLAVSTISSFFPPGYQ

KD fold (SG1 = 1) [1] [fold] | KD fold (SG1 = 1) [2] [fold] | KD fold (SG1 = 1) [3] [fold] | Kd [4] [µM] | KD fold (SG1 = 1) [5] [fold] | Kd [5] [µM] | Kd [6] [µM] | KD fold (SG1 = 1) [7] [fold] | KD fold (SG1 = 1) [6] [fold] | Kd [3] [µM] | Kd [8] [µM] | Binder
0.11 | 0.5 |  |  |  |  |  |  |  |  |  | MS1032LO06-SG1012 (antibody, human IgG1, kappa, tied to rows r7/r25 by row order only; also called MS103205H795-SG1012; copies: 2 + 2) heavy: QVTLKESGPVLVKPTETLTLTCTVSGIDLSHDDISWVRQAPGKGLEWVGIISYAGSTYYASWAKGRLTISKDTSKNQVVLTMTNMDPVDTATYYCARGVPAYSHGGDLWGQGTLVTVSSASTKGPSVFPLAPSSKSTSGGTAALGCLVKDYFPEPVTVSWNSGALTSGVHTFPAVLQSSGLYSLSSVVTVPSSSLGTQTYICNVNHKPSNTKVDKKVEPKSCDKTHTCPPCPAPELLNGPSVFLFPPKPKDTLMISRTPEVTCVVVDVSEEDPEVKFNWYVDGVEVHNAKTKPREEQYNSTYRVVSVLTVLHQDWLNGKEYKCKVSNKALPKPIEKTISKAKGQPREPQVYTLPPSREEMTKNQVSLTCLVKGFYPSDIAVEWESNGQPENNYKTTPMVLDSDGSFFLYSKLTVDKSRWQQGNVFSCSVMHEALHAHYTQKSLSLSP light: DIVMTQSPATLSLSPGERATLSCTSSQSVYHANWLSWFQQKPGQPPKLLIYWASTLAYGVPSRFSGSGSGTDFTLTISSLQPEDAATYYCAGGYGGGRYAFGQGTKVEIKRTVAAPSVFIFPPSDEQLKSGTASVVCLLNNFYPREAKVQWKVDNALQSGNSQESVTEQDSKDSTYSLSSTLTLSKADYEKHKVYACEVTHQGLSSPVTKSFNRGEC
 |  | 2.8 | 1.2 | 0.13 | 2.7 | 1.1 |  |  |  |  | M103205H795-MY179/M103202L889-SK1 (antibody, human IgG1, kappa, name in EU numbering, EU numbering) heavy: QVTLKESGPVLVKPTETLTLTCTVSGIDLSHDDISWVRQAPGKGLEWVGIISYAGSTYYASWAKGRLTISKDTSKNQVVLTMTNMDPVDTATYYCARGVPAYSHGGDLWGQGTLVTVSSASTKGPSVFPLAPSSKSTSGGTAALGCLVKDYFPEPVTVSWNSGALTSGVHTFPAVLQSSGLYSLSSVVTVPSSSLGTQTYICNVNHKPSNTKVDKKVEPKSCDKTHTCPPCPAPELLNGPSVFLFPPKPKDTLMISRTPEVTCVVVDVSEEDPEVKFNWYVDGVEVHNAKTKPREEQYNSTYRVVSVLTVLHQDWLNGKEYKCKVSNKALPAPIEKTISKAKGQPREPQVYTLPPSREEMTKNQVSLTCLVKGFYPSDIAVEWESNGQPENNYKTTPRVLDSDGSFFLYSKLTVDKSRWQQGNVFSCSVMHEALHNHYTQKSLSLSP light: DIVMTQSPATLSLSPGERATLSCTSSQSVYHANWLSWFQQKPGQPPKLLIYWASTLAYGVPSRFSGSGSGTDFTLTISSLQPEDAATYYCAGGYGGGRYAFGQGTKVEIKRTVAAPSVFIFPPSDEQLKSGTASVVCLLNNFYPREAKVQWKVDNALQSGNSQESVTEQDSKDSTYSLSSTLTLSKADYEKHKVYACEVTHQGLSSPVTKSFNRGEC
0.07 | 5.7 |  |  |  |  |  |  |  |  |  | MS1032LO19-SG1071 (antibody, tied to rows r14/r32 by row order only; also called MS103240H795-SG1071; copies: 2 + 2) heavy: QVQLVESGGGLVQPGGSLRLSCAVSGIDLSHDDISWVRQAPGKGLEWVSIISYAGSTYYASWAKGRLTISKDTSKNQVVLTMTNMDPVDTATYYCARGVPAYSHGGDLWGQGTLVTVSSASTKGPSVFPLAPSSKSTSGGTAALGCLVKDYFPEPVTVSWNSGALTSGVHTFPAVLQSSGLYSLSSVVTVPSSSLGTQTYICNVNHKPSNTKVDKKVEPKSCDKTHTCPPCPAPELLNGPSVFLFPPKPKDTLMISRTPEVTCVVVDVSDEDPEVKFNWYVDGVEVHNAKTKPREELYNSTYRVVSVLTVLHRDWLNGKEYKCKVSNKALPKPIEKTISKAKGQPREPQVYTLPPSREEMTKNQVSLTCLVKGFYPSDIAVEWESNGQPENNYKTTPPVLDSDGSFFLYSKLTVKKSRWQQGNVFSCSVLHEALHAHTTRKELSLSP light: DIVMTQSPATLSLSPGERATLSCTTSQSVYHENWLSWFQQKPGQPPKLLIYWASTLAYGVPSRFSGSGSGTDFTLTISSLQPEDAATYYCAGGYGGGRYAFGQGTKVEIKRTVAAPSVFIFPPSDEQLKSGTASVVCLLNNFYPREAKVQWKVDNALQSGNSQESVTEQDSKDSTYSLSSTLTLSKADYEKHKVYACEVTHQGLSSPVTKSFNRGEC

More lines, now with the values behind:

Binder | KD fold (SG1 = 1) [1] [fold] | KD fold (SG1 = 1) [2] [fold] | KD fold (SG1 = 1) [3] [fold] | Kd [4] [µM] | KD fold (SG1 = 1) [5] [fold] | Kd [5] [µM] | Kd [6] [µM] | KD fold (SG1 = 1) [7] [fold] | KD fold (SG1 = 1) [6] [fold] | Kd [3] [µM] | Kd [8] [µM]
M103205H795-MY178/M103202L889-SK1 (antibody, human IgG1, kappa, name in EU numbering, EU numbering) heavy: QVTLKESGPVLVKPTETLTLTCTVSGIDLSHDDISWVRQAPGKGLEWVGIISYAGSTYYASWAKGRLTISKDTSKNQVVLTMTNMDPVDTATYYCARGVPAYSHGGDLWGQGTLVTVSSASTKGPSVFPLAPSSKSTSGGTAALGCLVKDYFPEPVTVSWNSGALTSGVHTFPAVLQSSGLYSLSSVVTVPSSSLGTQTYICNVNHKPSNTKVDKKVEPKSCDKTHTCPPCPAPELLNGPSVFLFPPKPKDTLMISRTPEVTCVVVDVSEEDPEVKFNWYVDGVEVHNAKTKPREEQYNSTYRVVSVLTVLHQDWLNGKEYKCKVSNKALPAPIEKTISKAKGQPREPQVYTLPPSREEMTKNQVSLTCLVKGFYPSDIAVEWESNGQPENNYKTTPQVLDSDGSFFLYSKLTVDKSRWQQGNVFSCSVMHEALHNHYTQKSLSLSP light: DIVMTQSPATLSLSPGERATLSCTSSQSVYHANWLSWFQQKPGQPPKLLIYWASTLAYGVPSRFSGSGSGTDFTLTISSLQPEDAATYYCAGGYGGGRYAFGQGTKVEIKRTVAAPSVFIFPPSDEQLKSGTASVVCLLNNFYPREAKVQWKVDNALQSGNSQESVTEQDSKDSTYSLSSTLTLSKADYEKHKVYACEVTHQGLSSPVTKSFNRGEC |  |  |  | 1.3 | 0.17 | 3 |  | 0.15 | 0.6 |  | 
M103205H795-MY172/M103202L889-SK1 (antibody, human IgG1, kappa, name in EU numbering, EU numbering) heavy: QVTLKESGPVLVKPTETLTLTCTVSGIDLSHDDISWVRQAPGKGLEWVGIISYAGSTYYASWAKGRLTISKDTSKNQVVLTMTNMDPVDTATYYCARGVPAYSHGGDLWGQGTLVTVSSASTKGPSVFPLAPSSKSTSGGTAALGCLVKDYFPEPVTVSWNSGALTSGVHTFPAVLQSSGLYSLSSVVTVPSSSLGTQTYICNVNHKPSNTKVDKKVEPKSCDKTHTCPPCPAPELLNGPSVFLFPPKPKDTLMISRTPEVTCVVVDVSEEDPEVKFNWYVDGVEVHNAKTKPREEQYNSTYRVVSVLTVLHQDWLNGKEYKCKVSNKALPAPIEKTISKAKGQPREPQVYTLPPSREEMTKNQVSLTCLVKGFYPSDIAVEWESNGQPENNYKTTPGVLDSDGSFFLYSKLTVDKSRWQQGNVFSCSVMHEALHNHYTQKSLSLSP light: DIVMTQSPATLSLSPGERATLSCTSSQSVYHANWLSWFQQKPGQPPKLLIYWASTLAYGVPSRFSGSGSGTDFTLTISSLQPEDAATYYCAGGYGGGRYAFGQGTKVEIKRTVAAPSVFIFPPSDEQLKSGTASVVCLLNNFYPREAKVQWKVDNALQSGNSQESVTEQDSKDSTYSLSSTLTLSKADYEKHKVYACEVTHQGLSSPVTKSFNRGEC |  |  | 1.8 |  | 0.17 | 3.5 | 1.7 |  |  | 2.8 | 1.1
